This is an account of results in publication PMC12126155 (Molecular cell, 2025).

In this assay the target is histone H4 (X. laevis), as in the H3K4Cme3 nucleosome (X. laevis, UniProt P62799 1-103). As to the kind of experiment: cryo-EM structure.

B1: H. sapiens Chromodomain Helicase DNA Binding Protein 1 (CHD1 residues 1-1327 lacking the CHCT domain) (enzyme)
chain: MNGHSDEESVRNSSGESSQSDDDSGSASGSGSGSSSGSSSDGSSSQSGSSDSDSGSESGSQSESESDTSRENKVQAKPPKVDGAEFWKSSPSILAVQRSAILKKQQQQQQQQQHQASSNSGSEEDSSSSEDSDDSSSEVKRKKHKDEDWQMSGSGSPSQSGSDSESEEEREKSSCDETESDYEPKNKVKSRKPQNRSKSKNGKKILGQKKRQIDSSEEDDDEEDYDNDKRSSRRQATVNVSYKEDEEMKTDSDDLLEVCGEDVPQPEEEEFETIERFMDCRIGRKGATGATTTIYAVEADGDPNAGFEKNKEPGEIQYLIKWKGWSHIHNTWETEETLKQQNVRGMKKLDNYKKKDQETKRWLKNASPEDVEYYNCQQELTDDLHKQYQIVERIIAHSNQKSAAGYPDYYCKWQGLPYSECSWEDGALISKKFQACIDEYFSRNQSKTTPFKDCKVLKQRPRFVALKKQPSYIGGHEGLELRDYQLNGLNWLAHSWCKGNSCILADEMGLGKTIQTISFLNYLFHEHQLYGPFLLVVPLSTLTSWQREIQTWASQMNAVVYLGDINSRNMIRTHEWTHHQTKRLKFNILLTTYEILLKDKAFLGGLNWAFIGVDEAHRLKNDDSLLYKTLIDFKSNHRLLITGTPLQNSLKELWSLLHFIMPEKFSSWEDFEEEHGKGREYGYASLHKELEPFLLRRVKKDVEKSLPAKVEQILRMEMSALQKQYYKWILTRNYKALSKGSKGSTSGFLNIMMELKKCCNHCYLIKPPDNNEFYNKQEALQHLIRSSGKLILLDKLLIRLRERGNRVLIFSQMVRMLDILAEYLKYRQFPFQRLDGSIKGELRKQALDHFNAEGSEDFCFLLSTRAGGLGINLASADTVVIFDSDWNPQNDLQAQARAHRIGQKKQVNIYRLVTKGSVEEDILERAKKKMVLDHLVIQRMDTTGKTVLHTGSAPSSSTPFNKEELSAILKFGAEELFKEPEGEEQEPQEMDIDEILKRAETHENEPGPLTVGDELLSQFKVANFSNMDEDDIELEPERNSKNWEEIIPEDQRRRLEEEERQKELEEIYMLPRMRNCAKQISFNGSEGRRSRSRRYSGSDSDSISEGKRPKKRGRPRTIPRENIKGFSDAEIRRFIKSYKKFGGPLERLDAIARDAELVDKSETDLRRLGELVHNGCIKALKDSSSGTERTGGRLGKVKGPTFRISGVQVNAKLVISHEEELIPLHKSIPSDPEERKQYTIPCHTKAAHFDIDWGKEDDSNLLIGIYEYGYGSWEMIKMDPDLSLTHKILPDDPDKKPQAKQLQTRADYLIKLLSRDLAKKEALSGAG
As for B1, the binding result is on record as “binds”.
